Measurements: the supplement of paper PMC9732359
± gives the uncertainty stated by the source.

Test: protein stability index of a GFP-peptide fusion (yeast GPS) (PSI 1-4); higher = more stable; sorted into four equal gates, so the index is relative within each strain
How it was run: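 Plasmids isolated from each sorting gate were PCR-amplified and Illumina-sequenced, and barcodes assigned the reads to strains. The gates, four of equal size, were set by GFP/Cherry fluorescence ratio on mid-log cultures in leucine-free medium. These cultures were yeast carrying a pooled library of tiled 17-residue yeast protein peptides fused downstream of GFP on a plasmid that also expresses Cherry. The protein stability index is the sum of every gate's read frequency times its gate number.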

Sequence | protein stability index (doa10∆) | protein stability index (pdr5∆) | protein stability index (san1∆) | protein stability index (ubr1∆)
EEKVLSTRLKKACKTAD [SRP68] | 3.18 ± 0.087 | 3.22 ± 0.077 | 3.56 ± 0.14 | 3.21 ± 0.075
EELLDNCIETFVAEKTT [SRB6] | 2.43 ± 0.16 | – | – | –
EELVSLAVFLFDIYNRD [YJL039C/NUP192] | 2.03 ± 0.099 | 1.24 ± 0.059 | 1.41 ± 0.2 | 1.39 ± 0.071
EEREGTDQSTEEEKSVD [CSL4] | 3.16 ± 0.16 | – | – | –
EESIRESLQKRELLKSQ [SIR3] | 3.13 ± 0.063 | 3.32 ± 0.068 | 3 ± 0.056 | 3.12 ± 0.059
EESISKFPDMGSLWVEF [RPB5] | 2.53 ± 0.073 | 2.98 ± 0.1 | 2.77 ± 0.1 | 2.71 ± 0.1
EETPSKTNKISILKRHS [NUT1] | – | – | – | 3.1 ± 0.17
EFDSTDTSLCINGEPSI [RRI1] | 3.16 ± 0.077 | 3.15 ± 0.088 | 3.08 ± 0.054 | 3.24 ± 0.046
EFESELKNVEETQEIKE [ESC2] | 3.54 ± 0.25 | 3.46 ± 0.2 | 3.25 ± 0.18 | 3.29 ± 0.15
EFGADWYKVAKNVGNKS [SWI3] | 3.35 ± 0.1 | 3.34 ± 0.083 | 3.35 ± 0.048 | 3.3 ± 0.051
EFGTYGKYVIAGHVSGV [RPN14] | 1.57 ± 0.14 | 1.57 ± 0.22 | 1.25 ± 0.3 | –
EFLFESLKNDLPQFRSS [ECM29] | 2.93 ± 0.087 | 3.1 ± 0.092 | 3.28 ± 0.082 | 3 ± 0.11
EFRSAAGQLALDLANSG [YDL116W/NUP84] | 2.79 ± 0.14 | – | 2.82 ± 0.14 | 3 ± 0.12
EGAEPGPPYTTDEHLIF [ISW2] | 2.91 ± 0.043 | 2.99 ± 0.047 | 2.42 ± 0.043 | 2.68 ± 0.037
EGEKCHPQDFGNPGRIR [SEC65] | 3.03 ± 0.076 | 2.76 ± 0.066 | 2.81 ± 0.057 | 3.08 ± 0.047
EGIIKPISKHSKQAIYT [RPS25A] | 1.65 ± 0.065 | 2.03 ± 0.057 | 1.47 ± 0.095 | 1.72 ± 0.056
EGKVTKLRRECSNPTCG [RPS31] | 3.31 ± 0.11 | 3.16 ± 0.089 | 3.18 ± 0.078 | 3.1 ± 0.083
EGLDELPKIIQLQGPQW [SOH1] | 3.16 ± 0.068 | 3.35 ± 0.057 | 3.18 ± 0.043 | 3.15 ± 0.056
EGLSAQIAFDLVSSASQ [RPN2] | 2.6 ± 0.068 | 3.05 ± 0.075 | 2.67 ± 0.1 | 2.62 ± 0.039
EGPKKCIQVNCLNCEKS [SNM1] | 2.62 ± 0.079 | 2.04 ± 0.058 | 2.8 ± 0.073 | 2.22 ± 0.049
EGQLKPGDGSSYINVTF [RPC25] | 3.44 ± 0.15 | 3.12 ± 0.15 | 2.77 ± 0.19 | 3.02 ± 0.11
EGTPINNVYFAAGALFV [RPN14] | 2.2 ± 0.091 | 2.63 ± 0.13 | 2.72 ± 0.12 | 2.45 ± 0.11
EGWFYKRAASVARHIYM [RPS19A] | 1.97 ± 0.16 | 2.51 ± 0.22 | 1.99 ± 0.14 | 2.33 ± 0.17
EGYGLRDVMCTDGVIGS [RPO31] | 2.35 ± 0.11 | 3.29 ± 0.14 | 2.58 ± 0.14 | 2.84 ± 0.06
EHFLKLNIDFGSDKQMF [YML103C/NUP188] | 2.61 ± 0.075 | 2.59 ± 0.07 | 2.26 ± 0.1 | 3.16 ± 0.061
EHLDCMNFISKEEFIMM [PCI8] | – | – | – | 3.17 ± 0.16
EIDHQEYSPEILQIREE [RRP6] | 3.19 ± 0.067 | 3.06 ± 0.069 | 3.21 ± 0.094 | 3.18 ± 0.048
EIENLDKELRKTKFQYK [YIL149C/MLP2] | 2.73 ± 0.081 | 3.02 ± 0.086 | 3.07 ± 0.067 | 2.92 ± 0.074

Sequence | protein stability index (doa10∆) | protein stability index (pdr5∆) | protein stability index (san1∆) | protein stability index (ubr1∆)
EIEQNTELLDEFIAAVN [RPN10] | 3.36 ± 0.082 | 3.32 ± 0.11 | 2.79 ± 0.099 | 3.16 ± 0.082
EIESIDKLPQFVDENTF [RPN1] | 3.08 ± 0.13 | 3.4 ± 0.22 | 3.09 ± 0.085 | 3.32 ± 0.1
EIFHLLQPLEEGLIIDT [SIN4] | 1.99 ± 0.2 | 2.13 ± 0.11 | 2.21 ± 0.22 | 1.97 ± 0.093
EIIADWIWDMNVHGSLE [BRR2] | 1.89 ± 0.1 | 2.43 ± 0.095 | 2.88 ± 0.085 | 2.18 ± 0.054
EIILKLCRNPLTSGLLY [YJL039C/NUP192] | 2.21 ± 0.069 | 1.84 ± 0.07 | 1.22 ± 0.16 | 1.17 ± 0.046
EIKKMIITNINAIFLSS [YCG1] | 2.49 ± 0.11 | 1.94 ± 0.088 | 1.8 ± 0.081 | 1.81 ± 0.12
EIKLLEISCKQWEISNM [CSI1] | – | 3.44 ± 0.27 | – | 3.55 ± 0.23
EIKNDFIMVKGCIPGNR [RPL3] | 1.1 ± 0.14 | 1.66 ± 0.08 | 1.48 ± 0.16 | 1.45 ± 0.11
EILNECHDELKALPMLE [MED4] | 2.52 ± 0.11 | 2.95 ± 0.16 | 2.59 ± 0.083 | 3.09 ± 0.088
EILRIHSRKMNLTRGIN [RPT6] | 2.85 ± 0.06 | 2.99 ± 0.071 | 2.29 ± 0.075 | 2.52 ± 0.06
EILVEESGLRPVSLLNS [PCI8] | 2.63 ± 0.1 | 3.21 ± 0.1 | 3.16 ± 0.063 | 2.54 ± 0.087
EILVLYNVCDTSKSLVK [SIN4] | 2.3 ± 0.05 | 2.88 ± 0.046 | 2.56 ± 0.058 | 2.97 ± 0.057
EINETEFIRCGCLIKNL [RMP1] | 2.48 ± 0.11 | 2.98 ± 0.096 | 2.82 ± 0.099 | 2.91 ± 0.055
EIPEGVTVSIKSRIVKV [RPL9B] | 1.29 ± 0.055 | 1.45 ± 0.075 | 1.44 ± 0.27 | 1.35 ± 0.11
EIRAKEYKTSSDSLGPD [SRB2] | 2.81 ± 0.087 | 2.87 ± 0.058 | 3.04 ± 0.053 | 2.98 ± 0.06
EISISFDVNNIDMHLIY [YDL116W/NUP84] | 1.94 ± 0.082 | 2.43 ± 0.093 | 2.02 ± 0.089 | 2.25 ± 0.057
EISLKAHCILGIGGDHA [RPC40] | 1.16 ± 0.18 | 1.3 ± 0.16 | 1.28 ± 0.3 | –
EISPQDSIASVLSPDSN [GAL11] | 1.99 ± 0.064 | 2.34 ± 0.062 | 2.98 ± 0.087 | 2.64 ± 0.055
EIVSDVKVVDAGNKVGQ [RPP0] | – | 3.59 ± 0.2 | – | –
EIVWTSSLIKAGLDKGI [RPO31] | 1.92 ± 0.047 | 1.96 ± 0.061 | 2.54 ± 0.05 | 1.57 ± 0.057
EKAVEEKPAVKSYASLL [RPT3] | 2.89 ± 0.06 | 3.02 ± 0.053 | 2.92 ± 0.052 | 2.96 ± 0.049
EKDFCTSCLQNNNQKID [SRB8] | 3.13 ± 0.09 | 3.29 ± 0.13 | – | 2.93 ± 0.055
EKGLNELSIRDVTHTLG [SMC4] | 1.34 ± 0.14 | 2.42 ± 0.092 | 2.48 ± 0.17 | 1.57 ± 0.1
EKIKMKLKQGQKLFVQV [GAL11] | 2.85 ± 0.13 | 3.2 ± 0.09 | 3.28 ± 0.074 | 3.23 ± 0.14
EKKAASAKQTAPNNSNG [MED7] | 2.94 ± 0.15 | 3 ± 0.13 | 2.95 ± 0.14 | 2.41 ± 0.24
EKKAEYFAKLREYLEEY [RPP0] | 3.44 ± 0.092 | 3.31 ± 0.088 | 3.05 ± 0.067 | 3.54 ± 0.099
EKKGIVQASVTSSTHER [RET1] | 3.28 ± 0.19 | 3.1 ± 0.23 | 3.45 ± 0.15 | 3.24 ± 0.11
